From article PMC11217422, “Proton-pumping photoreceptor controls expression of ABC transporter by regulating transcription factor through light” (Communications Biology, 2024)

Target: T1, G. violaceus transcriptional regulator, with His tag (Gloeobacter violaceus PCC 7421)
T1 construct: GvTcR, helix-turn-helix type transcriptional regulator of Gloeobacter violaceus PCC 7421, NCBI WP_011141437.1; gene amplified from genomic DNA with the printed primers (forward from the start codon, reverse adds His6 before the stop codon); also called GvTcR; HTH transcription factor protein; source: E. coli UT5600, purified (Ni-NTA); also in cell lysate; also co-expressed with GR from one pKA001 …
Assay: ITC; MicroCal ITC200, room temperature, sonication buffer (150 mM NaCl, 50 mM Tris-HCl, pH 7.0) with 0.02% DDM; which protein was titrated is not told
Details: both partners purified

B1: GR R69A/K141A double mutant (natural protein)
chain: MLMTVFSSAPELALLGSTFAQVDPSNLSVSDSLTYGQFNLVYNAFSFAIAAMFASALFFFSAQALVGQAYRLALLVSAIVVSIAGYHYFRIFNSWDAAYVLENGVYSLTSEKFNDAYRYVDWLLTVPLLLVETVAVLTLPAAEARPLLIKLTVASVLMIATGYPGEISDDITTRIIWGTVSTIPFAYILYVLWVELSRSLVRQPAAVQTLVRNMRWLLLLSWGVYPIAYLLPMLGVSGTSAAVGVQVGYTIADVLAKPVFGLLVFAIALVKTKADQESSEPHAAIGAAANKSGGSLIS
modifications: retinal chromophore bound by a Schiff base (residue not given)
Work on B1 yielded a Kd of 6.2 ± 3.15 mM.
